According to article PMC6301718, “CDHR3 extracellular domains EC1-3 mediate rhinovirus C interaction with cells and as recombinant derivatives, are inhibitory to virus infection” (PLoS Pathogens, 2018):
Substitutions are numbered along the chain they refer to. Names may count otherwise.

Assays:
[1] = target: pHL-FLAG-CDHR3-His EC1-3 (1–345) (human) (UniProt Q6ZTQ4); assay: co-IP; HeLa-expressed CDHR3 fragments recovered from lysate with α-His mAb, denatured and refolded as the bacterial proteins, reacted with C15 virus; IP and detection with α-His mAb
[2] = target: FLAG-tag-CDHR3 Y529 K43A (human) (UniProt Q6ZTQ4); assay: co-IP; clarified lysate of transfected or stably transduced HeLa cells (2 mM CaCl2) incubated with sucrose purified C15 virus (10^7 PFUe) and α-CDHR3 antibody (cytoplasmic domain) overnight at 4°C, protein-G sepharose; Western with α-CDHR3 and α-C15
[3] = target: FLAG-tag-CDHR3 Y529 N186A (human) (UniProt Q6ZTQ4); assay: as above
[4] = target: FLAG-tag-CDHR3 Y529 N186Q (human) (UniProt Q6ZTQ4); assay: as above
[5] = target: FLAG-tag-CDHR3 Y529 R166A (human) (UniProt Q6ZTQ4); assay: as above
[6] = target: FLAG-tag-CDHR3 Y529 W76A (human) (UniProt Q6ZTQ4); assay: as above
[7] = target: rEC1 (CDHR3 residues 20–130) (human) (UniProt Q6ZTQ4); assay: co-IP; refolded bacterial CDHR3 fragment (100 pmol) incubated with C15 virus (10^7 PFUe, 1 h, 25°C) and α-His mAb in 20 mM Tris, 137 mM NaCl, 2 mM CaCl2, 1% Triton x-100, protein-G sepharose; Western with α-His and α-C15; complexes also treated with 500 mM NaCl (Fig 5d)
[8] = target: rEC1+3(Δ2) (CDHR3 residues 20–345, Δ129–231) (human) (UniProt Q6ZTQ4); assay: as above
[9] = target: rEC1-2 (CDHR3 residues 20–237) (human) (UniProt Q6ZTQ4); assay: as above
[10] = target: rEC1-3 (CDHR3 residues 20–345, C345A) (human) (UniProt Q6ZTQ4); assay: as above
[11] = target: rEC1-3 K43A (20–345, C345A, K43A) (human) (UniProt Q6ZTQ4); assay: as above
[12] = target: rEC1-3 N186A (20–345, C345A, N186A) (human) (UniProt Q6ZTQ4); assay: as above
[13] = target: the molecule itself; assay: SEC; HiPrep 16/60 Sephacryl S200, refolded protein 0.5–1.5 mg, 1 mL/min, 20 mM Tris (pH 8.0), 137 mM NaCl, 2 mM CaCl2

rhinovirus C15 virion (complex)
binding % after refolding relative to the same protein not refolded [1]: 213%
binding % relative to WT CDHR3 (C15 signal normalized to CDHR3 signal) [2]: 46%
binding % relative to WT CDHR3 (C15 signal normalized to CDHR3 signal) [3]: 11%
binding % relative to WT CDHR3 (C15 signal normalized to CDHR3 signal) [4]: 19%
binding % relative to WT CDHR3 (C15 signal normalized to CDHR3 signal) [5]: 16%
% more virus pull-down than WT (% more than WT) [6]: 50 to 80
binding % relative to the positive control (100) of the panel [7]: 100%
binding % relative to the positive control (100) of the panel [8]: 68%
binding % relative to the positive control (100) of the panel [9]: 87%
binding % relative to the positive control (100) of the panel [10]: 61%
binding % relative to WT rEC1-3 [11]: 22%
binding % relative to WT rEC1-3 [12]: 85 % of WT

B1: rEC1-2 (CDHR3 residues 20–237) (domain or fragment)
chain: LHLILLPATGNVAENSPPGTSVHKFSVKLSASLSPVIPGFPQIVNSNPLTEAFRVNWLSGTYFEVVTTGMEQLDFETGPNIFDLQIYVKDEVGVTDLQVLTVQVTDVNEPPQFQGNLAEGLHLYIVERANPGFIYQVEAFDPEDTSRNIPLSYFLISPPKSFRMSANGTLFSTTELDFEAGHRSFHLIVEVRDSGGLKASTELQVNIVNLNDEVPRFT
notes: CDHR3, human, residues 20-237 (EC1 and EC2); numbering from GenBank AIC58018; also called rE1-2; rEC1-2 WT; not shown: His6, C-terminal, kept
binding result [13]: binds

B2: rEC1-2 W76A (CDHR3 residues 20–237, W76A) (domain or fragment, human, UniProt Q6ZTQ4 20-237, looked up)
chain: B1 chain with W57A
notes: CDHR3, human, residues 20-237; numbering from GenBank AIC58018; not shown: His6, C-terminal, kept
binding result [13]: binds

B3: rEC1-3 (CDHR3 residues 20–345, C345A) (domain or fragment)
chain: LHLILLPATGNVAENSPPGTSVHKFSVKLSASLSPVIPGFPQIVNSNPLTEAFRVNWLSGTYFEVVTTGMEQLDFETGPNIFDLQIYVKDEVGVTDLQVLTVQVTDVNEPPQFQGNLAEGLHLYIVERANPGFIYQVEAFDPEDTSRNIPLSYFLISPPKSFRMSANGTLFSTTELDFEAGHRSFHLIVEVRDSGGLKASTELQVNIVNLNDEVPRFTSPTRVYTVLEELSPGTIVANITAEDPDDEGFPSHLLYSITTVSKYFMINQLTGTIQVAQRIDRDAGELRQNPTISLEVLVKDRPYGGQENRIQITFIVEDVNDNPATA
notes: numbering from GenBank AIC58018; also called soluble CDHR3 rEC1-3; not shown: His6, C-terminal, kept
binding result [13]: binds
